Experimental data from patent US20240400638A1, “COMBINATION OF RELAXIN AND VASOPRESSIN ANALOGUES FOR TREATMENT OF RENAL DISORDERS OR CONDITIONS” (River 2 Renal Corp., priority 2021, published 2024).
Numbered stars: 1 amine (or outer) side, 2 acyl side, 3 side chain; on linkers, the order of the positions; unused ones are H or OH. Square brackets hold non-standard residues; d marks the D form. Side chains are listed from the residue outwards. * marks the point of attachment. TTDS = 4-[3-[2-[2-(3-aminopropoxy)ethoxy]ethoxy]propylamino]-4-oxo-butanoyl; γGlu = O=C(O)[C@H](CCC(=O)[*:2])N[*:1]; Stearoyl = CCCCCCCCCCCCCCCCCC(=O)*; Palmitoyl = CCCCCCCCCCCCCCCC(=O)*; αMeK = C[C@](N)(CCCCN)C(=O)O; AEEA = NCCOCCOCC(=O)O; Aib = CC(C)(N)C(=O)O

T1: human RXFP1 (human, UniProt Q9HBX9 1-757)
T1 sequence (looked up): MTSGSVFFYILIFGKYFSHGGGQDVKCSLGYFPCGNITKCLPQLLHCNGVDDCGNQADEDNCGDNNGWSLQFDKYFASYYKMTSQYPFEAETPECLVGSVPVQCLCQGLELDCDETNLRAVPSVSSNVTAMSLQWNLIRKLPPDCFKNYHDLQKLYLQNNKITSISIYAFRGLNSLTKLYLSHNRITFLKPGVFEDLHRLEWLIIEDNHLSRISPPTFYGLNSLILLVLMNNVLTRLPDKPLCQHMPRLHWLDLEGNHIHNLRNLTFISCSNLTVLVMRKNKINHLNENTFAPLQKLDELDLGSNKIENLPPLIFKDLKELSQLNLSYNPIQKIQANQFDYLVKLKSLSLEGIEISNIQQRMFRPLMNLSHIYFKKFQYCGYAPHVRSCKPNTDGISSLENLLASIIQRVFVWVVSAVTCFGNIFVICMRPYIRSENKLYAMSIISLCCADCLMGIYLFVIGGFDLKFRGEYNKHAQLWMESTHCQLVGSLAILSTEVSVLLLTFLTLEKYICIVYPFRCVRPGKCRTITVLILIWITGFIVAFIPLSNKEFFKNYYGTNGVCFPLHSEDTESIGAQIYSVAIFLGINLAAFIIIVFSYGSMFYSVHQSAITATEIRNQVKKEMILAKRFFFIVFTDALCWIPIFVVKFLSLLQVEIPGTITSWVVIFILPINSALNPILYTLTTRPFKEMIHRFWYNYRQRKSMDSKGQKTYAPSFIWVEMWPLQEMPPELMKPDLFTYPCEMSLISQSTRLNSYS

B1: Relaxin peptide analogue of SEQ ID NO: 7 (peptide)
peptide: Ac-LEGREKVRAK(Ac)I[Aib][Aib]EGK([TTDS-TTDS-TTDS-γGlu-γGlu-γGlu-Stearoyl])STFS[αMeK]RAK(Ac)-NH2
B2: Relaxin peptide analogue of SEQ ID NO: 72 (peptide)
peptide: Ac-LEGREKVRAK(Ac)I[Aib][Aib]EGK([TTDS-TTDS-TTDS-γGlu-γGlu-γGlu-Palmitoyl])STF[Aib]RRAK(Ac)-NH2
B3: Relaxin peptide analogue of SEQ ID NO: 75 (peptide)
peptide: Ac-LEGRERVRAK(Ac)I[Aib][Aib]EGK([TTDS-TTDS-TTDS-TTDS-γGlu-γGlu-γGlu-Palmitoyl])STWS[Aib]RRK(Ac)-NH2
B4: Relaxin peptide analogue of SEQ ID NO: 64 (peptide)
peptide: Ac-LEGREKVRAK(Ac)I[Aib][Aib]EGK([TTDS-TTDS-TTDS-γGlu-γGlu-γGlu-Palmitoyl])SRWS[Aib]RKK(Ac)-NH2
B5: Relaxin peptide analogue of SEQ ID NO: 79 (peptide)
peptide: Ac-LEGREKVRAK(Ac)I[Aib][Aib]EGK([TTDS-TTDS-TTDS-γGlu-γGlu-γGlu-Palmitoyl])SKFS[Aib]RKK(Ac)-NH2
B6: Relaxin peptide analogue of SEQ ID NO: 65 (peptide)
peptide: Ac-LEGREKVRK(Ac)QI[Aib][Aib]EGK([TTDS-TTDS-TTDS-γGlu-γGlu-γGlu-Palmitoyl])STWS[Aib]RKK(Ac)-NH2
B7: Relaxin peptide analogue of SEQ ID NO: 69 (peptide)
peptide: Ac-LEGREKVRAK(Ac)I[Aib][Aib]EGK([TTDS-TTDS-TTDS-γGlu-γGlu-γGlu-Palmitoyl])STWS[Aib]RK(Ac)R-NH2
B8: Relaxin peptide analogue of SEQ ID NO: 78 (peptide)
peptide: Ac-LEGREKVRAK(Ac)I[Aib][Aib]EGK([TTDS-TTDS-TTDS-TTDS-γGlu-γGlu-γGlu-Palmitoyl])STFS[αMeK]RAK(Ac)-NH2
B9: Relaxin peptide analogue of SEQ ID NO: 63 (peptide)
peptide: Ac-LEGREKVRAK(Ac)I[Aib][Aib]EGK([TTDS-TTDS-TTDS-γGlu-γGlu-γGlu-Palmitoyl])SQWS[Aib]RKK(Ac)-NH2
B10: Relaxin peptide analogue of SEQ ID NO: 67 (peptide)
peptide: Ac-LEGRERVRAK(Ac)I[Aib][Aib]EGK([TTDS-TTDS-TTDS-γGlu-γGlu-γGlu-Palmitoyl])STWS[Aib]RKK(Ac)-NH2
B11: Relaxin peptide analogue of SEQ ID NO: 61 (peptide)
peptide: Ac-LEGREKVRAK(Ac)I[Aib][Aib]EGK([TTDS-TTDS-TTDS-γGlu-γGlu-γGlu-Stearoyl])STFS[Aib]RKK(Ac)-NH2
B12: Relaxin peptide analogue of SEQ ID NO: 70 (peptide)
peptide: Ac-LEGREKVRAK(Ac)I[Aib]IEGK([TTDS-TTDS-TTDS-γGlu-γGlu-γGlu-Palmitoyl])STWS[Aib]RKK(Ac)-NH2
B13: Relaxin peptide analogue of SEQ ID NO: 66 (peptide)
peptide: Ac-LEGREKVRAK(Ac)I[Aib][Aib]EGK([TTDS-TTDS-TTDS-γGlu-γGlu-γGlu-Palmitoyl])STWK(Ac)[Aib]RAK(Ac)-NH2
B14: Relaxin peptide analogue of SEQ ID NO: 76 (peptide)
peptide: Ac-LEGRERVRAK(Ac)I[Aib][Aib]EGK([TTDS-TTDS-TTDS-γGlu-γGlu-γGlu-Palmitoyl])STFS[Aib]RRK(Ac)-NH2
B15: Relaxin peptide analogue of SEQ ID NO: 68 (peptide)
peptide: Ac-LEGREKVRAK(Ac)I[Aib][Aib]EGK([TTDS-TTDS-TTDS-γGlu-γGlu-γGlu-Palmitoyl])STWS[Aib]RK(Ac)K-NH2
B16: Relaxin peptide analogue of SEQ ID NO: 71 (peptide)
peptide: Ac-LEGREKVRAK(Ac)I[Aib][Aib]EGK([TTDS-TTDS-TTDS-γGlu-γGlu-γGlu-Palmitoyl])STWS[Aib]RAK-NH2
B17: Relaxin peptide analogue of SEQ ID NO: 5 (peptide)
peptide: Ac-LEGREKVRAK(Ac)I[Aib][Aib]EGK([AEEA-AEEA-AEEA-AEEA-γGlu-γGlu-γGlu-Palmitoyl])STWS[Aib]RKK(Ac)-NH2
SMILES: CCCCCCCCCCCCCCCC(=O)N[C@@H](CCC(=O)N[C@@H](CCC(=O)N[C@@H](CCC(=O)NCCOCCOCC(=O)NCCOCCOCC(=O)NCCOCCOCC(=O)NCCOCCOCC(=O)NCCCC[C@H](NC(=O)CNC(=O)[C@H](CCC(=O)O)NC(=O)C(C)(C)NC(=O)C(C)(C)NC(=O)[C@@H](NC(=O)[C@H](CCCCNC(C)=O)NC(=O)[C@H](C)NC(=O)[C@H](CCCNC(=N)N)NC(=O)[C@@H](NC(=O)[C@H](CCCCN)NC(=O)[C@H](CCC(=O)O)NC(=O)[C@H](CCCNC(=N)N)NC(=O)CNC(=O)[C@H](CCC(=O)O)NC(=O)[C@H](CC(C)C)NC(C)=O)C(C)C)[C@@H](C)CC)C(=O)N[C@@H](CO)C(=O)N[C@H](C(=O)N[C@@H](Cc1c[nH]c2ccccc12)C(=O)N[C@@H](CO)C(=O)NC(C)(C)C(=O)N[C@@H](CCCNC(=N)N)C(=O)N[C@@H](CCCCN)C(=O)N[C@@H](CCCCNC(C)=O)C(N)=O)[C@@H](C)O)C(=O)O)C(=O)O)C(=O)O
B18: Relaxin peptide analogue of SEQ ID NO: 77 (peptide)
peptide: Ac-LEGRERVRAK(Ac)I[Aib][Aib]EGK([TTDS-TTDS-TTDS-TTDS-γGlu-γGlu-γGlu-Palmitoyl])STFS[Aib]RRK(Ac)-NH2
B19: Relaxin peptide analogue of SEQ ID NO: 6 (peptide)
peptide: Ac-LEGREKVRAK(Ac)I[Aib][Aib]EGK([TTDS-TTDS-γGlu-γGlu-γGlu-Stearoyl])STWS[Aib]RKK(Ac)-NH2
B20: Relaxin peptide analogue of SEQ ID NO: 74 (peptide)
peptide: Ac-LEGREKVRAK(Ac)I[Aib]IEGK([TTDS-TTDS-TTDS-TTDS-γGlu-γGlu-γGlu-Palmitoyl])STWS[Aib]RKK(Ac)-NH2
B21: Relaxin peptide analogue of SEQ ID NO: 59 (peptide)
peptide: Ac-LEGREKVRAK(Ac)I[Aib][Aib]EGK([TTDS-TTDS-TTDS-TTDS-γGlu-γGlu-γGlu-Stearoyl])STFS[Aib]RKK(Ac)-NH2
B22: Relaxin peptide analogue of SEQ ID NO: 60 (peptide)
peptide: Ac-LEGREKVRAK(Ac)I[Aib][Aib]EGK([TTDS-TTDS-γGlu-γGlu-γGlu-Stearoyl])STFS[Aib]RKK(Ac)-NH2
B23: Relaxin peptide analogue of SEQ ID NO: 1 (peptide)
peptide: Ac-LEGREKVRAK(Ac)I[Aib][Aib]EGK([TTDS-TTDS-TTDS-γGlu-γGlu-γGlu-Palmitoyl])STWS[Aib]RKK(Ac)-NH2
B24: Relaxin peptide analogue of SEQ ID NO: 62 (peptide)
peptide: Ac-LEGREKVRAK(Ac)I[Aib][Aib]EGK([TTDS-TTDS-TTDS-γGlu-γGlu-γGlu-γGlu-Palmitoyl])STWS[Aib]RKK(Ac)-NH2
B25: Relaxin peptide analogue of SEQ ID NO: 73 (peptide)
peptide: Ac-LEGREKVRAK(Ac)I[Aib][Aib]EGK([TTDS-TTDS-TTDS-γGlu-γGlu-γGlu-Palmitoyl])SKWS[Aib]RAK-NH2

molecular target: T1, human RXFP1; assay: cell-based or functional assay

Row | Binder | EC50 (nM), OVCAR 5 cells (cAMP) [nM] | EMax, OVCAR 5 cells (cAMP) [%]
1 | B1 | 0.07 | 95
2 | B2 | 0.56 | 91
3 | B3 | 0.19 | 97
4 | B4 | 0.52 | 95
5 | B5 | 0.45 | 95
6 | B6 | 1.19 | 95
7 | B7 | 0.78 | 97
8 | B8 | 0.18 | 99
9 | B9 | 1.45 | 97
10 | B10 | 0.48 | 95
11 | B11 | 0.1 | 97
12 | B12 | 1.34 | 94
13 | B13 | 6.31 | 93
14 | B14 | 0.18 | 96
15 | B15 | 0.88 | 98
16 | B16 | 0.36 | 95
17 | B17 | 9.1 | 85
18 | B18 | 0.11 | 98
19 | B19 | 0.27 | 95
20 | B20 | 0.54 | 94
21 | B21 | 0.09 | 99
22 | B22 | 0.15 | 95
23 | B23 | 1.5 | 99
24 | B24 | 0.6 | 98
25 | B25 | 0.2 | 95
